These results are taken from patent US20040067880A1 (priority 2002, published 2004).

Series [1] has as its target CS receptor on human cells (HepG2 hepatoma cells; human liver metastases of colorectal cancer) (human). Description: cell-based or functional assay.
The target of series [2] is CS receptor on mouse colorectal carcinoma MCA26 cells (mouse). In words: cell-based or functional assay.
Series [3] addresses CS receptor on rat cells (rat liver sections; rat hepatoma H4IIE) (rat). In words: cell-based or functional assay.
In series [4] the target is CS receptor on human cells (HepG2 hepatoma cells; human liver metastases of colorectal cancer) (human). In words: indirect immunofluorescence on frozen sections of human liver MCC from six patients.
Series [5] is described as follows: Cytosine deaminase enzymatic activity assay (conversion of [3H]cytosine to [3H]uracil). The conditions noted are these: purified recombinant protein. Type of series: biochemical. As for the experimental part: Crude cell extracts were prepared by sonicating cells in a buffer (50 mM Na phosphate, pH 7.8 and 0.3 M NaCl) followed by centrifugation. Cytosine deaminase activity was determined by measuring the production of uracil in a reaction mixture (50 μl) containing 5 mM, 6-[^3H]cytosine (0.45 Ci/mol), 50 mM Tris-HCl pH 7.8, 1 mM DTT, 1 mM EDTA and cellular crude extract (10-20 μg/ml) or eluted fractions. After 1-2 hour of incubation at 37° C., 10 μl aliquots were withdrawn and analyzed by thin layer chromatography (Silica Gel 60, Selecto Scientific, Norcross, Ga.). Chromatograms were developed in 1-butanol /water (86/14, v/v). Positions of cytosine and uracil were identified by […]. The corresponding spots for cytosine and uracil were cut out and radioactivities were determined in a scintillation counter. In some cases, 6-[3H] 5-FC (4.0 Ci/mmol) was used as a substrate in the assay.

Series [6] deals with HepG2 cells. Type of series: cell-based, human. The conditions noted are these: HepG2, 0.64 μM protein 4 hrs, 1 mM 5-FC, viability after 4 days.
In series [7] the test system is HL60 cells. Description: Cytotoxicity assay with 5-FC in HL60 cells. Type of series: cell-based. The conditions noted are these: HL-60, 0.64 μM protein 4 hrs, protein removed (washed), 1 mM 5-FC.
For series [8], the system named is HepG2 cells. Description: Persistent effect on 5-FC cell killing of HepG2 cells. Type of series: cell-based, human. The following applies: HepG2, 0.5 μM protein 4 hrs, then 5-FC at intervals. As for the experimental part: FIG. 7. Persistent effect of CD-CS on cell killing of HepG2 cells. HepG2 cells were treated with 0.8 μM of CD-CS or with CD as a control for 4 hr. Cells was washed with fresh medium and cultured in the regular medium. Cultures were split once every 6 days. At different time intervals, cells were treated with 1 mM 5-FC. Cell viability was counted 4 days thereafter. Each point represents an average of three independent experiments.
HepG2 cells were treated with 0.5 μM of CD-CS or CD for 4 hrs and the recombinant proteins were removed from the medium and the cells were maintained in fresh medium thereafter. At different time intervals, cells were treated with 5-FC. Sustained cell killing was observed even 28 days after the removal of the recombinant protein (FIG. 7).

As for “CD-CS fusion protein (cytosine deaminase fused to repeat-deleted malarial circumsporozoite protein, encoded by pCD5-73.15.5) (from UniProt P19597 27-29; P25524 2-427; P19597 30-396)”, the LD50 of CD-CS-mediated cell killing, HepG2 in series [1] is 0.22 µM. In series [2], this molecule had an LD50 of CD-CS-mediated cell killing, MCA26 of 0.22 µM. Moreover, the LD50 of CD-CS-mediated cell killing, rat hepatoma H-4-II-E in series [3] was determined as 0.22 µM.

Consider “full-length recombinant CS protein (malarial circumsporozoite protein) (from UniProt P19597 27-396) (ligand)”, for which the positive staining cells in series [4] was above 90%.

B1: CD: recombinant Escherichia coli cytosine deaminase with 6 histidine residues at the C-terminus (protein, UniProt P25524 2-427, looked up)
Cytosine deaminase: SNNALQTIINARLPGEEGLWQIHLQDGKISAIDAQSGVMPITENSLDAEQGLVIPPFVEPHIHLDTTQTAGQPNWNQSGTLFEGIERWAERKALLTHDDVKQRAWQTLKWQIANGIQHVRTHVDVSDATLTALKAMLEVKQEVAPWIDLQIVAFPQEGILSYPNGEALLEEALRLGADVVGAIPHFEFTREYGVESLHKTFALAQKYDRLIDVHCDEIDDEQSRFVETVAALAHHEGMGARVTASHTTAMHSYNGAYTSRLFRLLKMSGINFVANPLVNIHLQGRFDTYPKRRGITRVKEMLESGINVCFGHDDVFDPWYPLGTANMLQVLHMGLHVCQLMGYGQINDGLNLITHHSARTLNLQDYGIAAGNSANLIILPAENGFDALRRQVPVRYSVRGGKVIASTQPAQTTVYLEQPEAIDYKR
modifications: C-terminal His6 tag
notes: recombinant Escherichia coli cytosine deaminase with 6 histidine residues at the C-terminus
Take B1: in series [5], the “specific activity, conversion of [3H]cytosine to [3H]uracil” value is recorded as 3,308 nmol/min/mg protein. Further, in series [6] (unwashed), the “sensitivity of protein-treated cells to 5-FC” value is given as “sensitive”. Besides, the “sensitivity of protein-pretreated cells to 5-FC / cell killing” value in series [6] (washed) is on record as “could not”. For the same molecule, the “cell death upon subsequent addition of 5-FC” value in series [7] is “failed to induce cell death”. In addition, the “cell killing (basal level)” value in series [8] was below 10%.
